From PMC10384689 come the findings set out here.

The term Km denotes the concentration of substrate that gives half-maximal velocity. What is called kcat is the number of substrate molecules converted per active site and unit of time at saturation. Broadly, the kcat/Km is the second-order rate constant that governs catalysis at low substrate concentration.

Substrate in the data set: Oc1ccc(/C=C/c2cc(O)cc(O)c2)cc1
The data set is described as follows: purified protein. The conditions noted are these: PBS pH 7.4, 30 °C, 10 min, 10 uM FAD, 1 mM NADH, 1 uM HpaB, 1 uM HpaC, apparent.

B1: EcHpaBC (E. coli 4HPA3H; HpaB + HpaC) (Escherichia coli) (protein)
chain: MKPEDFRASTQRPFTGEEYLKSLQDGREIYIYGERVKDVTTHPAFRNAAASVAQLYDALHKPEMQDSLCWNTDTGSGGYTHKFFRVAKSADDLRHERDAIAEWSRLSYGWMGRTPDYKAAFGCALGGTPGFYGQFEQNARNWYTRIQETGLYFNHAIVNPPIDRHLPTDKVKDVYIKLEKETDAGIIVSGAKVVATNSALTHYNMIGFGSAQVMGENPDFALMFVAPMDADGVKLISRASYEMVAGATGSPYDYPLSSRFDENDAILVMDNVLIPWENVLLYRDFDRCRRWTMEGGFARMYPLQACVRLAVKLDFITALLKKSLECTGTLEFRGVQADLGEVVAWRNTFWALSDSMCSEATPWVNGAYLPDHAALQTYRVLAPMAYAKIKNIIERNVTSGLIYLPSSARDLNNPQIDQYLAKYVRGSNGMDHVQRIKILKLMWDAIGSEFGGRHELYEINYSGSQDEIRLQCLRQAQSSGNMDKMMAMVDRCLSEYDQNGWTVPHLHNNDDINMLDKLLK
Turning to B1, the Km turned out to be 670 ± 120 µM, the kcat worked out at 0.0135 s⁻¹ and the kcat/Km came out at 20 M⁻¹ s⁻¹.
